From patent publication EP4538286A1 (Adlai Nortye Biopharma Co., Ltd., dated 2025)

T1: human CTLA4 protein (human, UniProt P16410 37-162, limits assumed)
T1 construct: bought protein coated on the ELISA plate; also called human CTLA4 antigen
T1 sequence (looked up): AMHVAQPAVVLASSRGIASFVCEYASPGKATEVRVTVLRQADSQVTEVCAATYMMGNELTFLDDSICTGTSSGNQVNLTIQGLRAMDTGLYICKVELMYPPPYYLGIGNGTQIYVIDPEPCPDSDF


What was measured:
[1] = biological target: PD-L1 on TCR activator PD-L1-CHO cells (UniProt Q9NZQ7 19-290, limits assumed); test: cell-based or functional assay
[2] = biological target: T2, human CD28 protein (human, UniProt P10747 19-152); test: ELISA, plate-coated human CD28; design: binding strength @ 100nM: reference not given here
T2 construct: bought protein coated on the ELISA plate; also called human CD28 antigen

[3] = biological target: T1, human CTLA4 protein; test: ELISA, plate-coated human CTLA4

Chain of PD-L1 on TCR activator PD-L1-CHO cells (Q9NZQ7 19-290 limits assumed): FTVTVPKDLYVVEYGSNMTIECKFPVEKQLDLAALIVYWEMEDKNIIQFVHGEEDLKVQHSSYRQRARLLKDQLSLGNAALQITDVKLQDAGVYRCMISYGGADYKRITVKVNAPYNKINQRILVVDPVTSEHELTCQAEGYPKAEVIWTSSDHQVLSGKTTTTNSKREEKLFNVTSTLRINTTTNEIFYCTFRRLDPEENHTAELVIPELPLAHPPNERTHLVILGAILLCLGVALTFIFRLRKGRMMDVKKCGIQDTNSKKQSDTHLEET
T2 sequence (P10747 19-152 limits assumed): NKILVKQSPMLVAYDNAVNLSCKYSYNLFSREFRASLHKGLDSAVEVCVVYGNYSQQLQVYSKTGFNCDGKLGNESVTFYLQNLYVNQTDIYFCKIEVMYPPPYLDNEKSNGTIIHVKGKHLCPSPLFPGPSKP

Binder | EC50(nM), Jurkat-NFAT-Luc/CHO-PDL1 [1] [nM] | The highest induction relative to 10 nM sugemalimab [1] [%] | EC50 [2] [nM] | binding strength @ 100nM [2] [%] | EC50 [3] [nM] | binding strength @ 20nM [3] [%] | binding result [2] | binding result [3]
Abs-353 (other, CD80 IgV mutant fused to the N-terminus of the sugemalimab heavy chain; also called CD80 IgV mutant E35N/A71E-sugemalimab fusion) heavy: VIHVTKEVKEVATLSCGHNVSVEELAQTRIYWQKNKKMVLTMMSGDMNIWPEYKNRTIFDITNNLSIVILELRPSDEGTYECVVLKYEKDAFKREHLAEVTLSVKADGGGGSGGGGSGGGGSGGGGSGEVQLLESGGGLVQPGGSLRLSCAASGFTFSSYAMSWVRQAPGKGLEWVSGISGSGGFTYYADSVKGRFTISRDNSKNTLYLQMNSLRAEDTAVYYCAKPPRGYNYGPFDYWGQGTLVTVSSASTKGPSVFPLAPCSRSTSESTAALGCLVKDYFPEPVTVSWNSGALTSGVHTFPAVLQSSGLYSLSSVVTVPSSSLGTKTYTCNVDHKPSNTKVDKRVESKYGPPCPPCPAPEFLGGPSVFLFPPKPKDTLMISRTPEVTCVVVDVSQEDPEVQFNWYVDGVEVHNAKTKPREEQFNSTYRVVSVLAVLHQDWLNGKEYKCKVSNKGLPSSIEKTISKAKGQPREPQVYTLPPSQEEMTKNQVSLTCLVKGFYPSDIAVAWESNGQPENNYKTTPPVLDSDGSFFLYSRLTVDKSRWQEGNVFSCSVMHEALHAHYTQKSLSLSLGK light: SYVLTQPPSVSVAPGQTARITCGGNNIGSKSVHWYQQKPGQAPVLVVYDDSDRPSGIPERFSGSNSGNTATLTISRVEAGDEADYYCQVWDSSSDHVVFGGGTKLTVLGQPKAAPSVTLFPPSSEELQANKATLVCLISDFYPGAVTVAWKADSSPVKAGVETTTPSKQSNNKYAASSYLSLTPEQWKSHRSYSCQVTHEGSTVEKTVAPTECS | 0.48 | 1130 | 25 | 1450 | 0.128 | 2490 |  | 
Abs-99 (other, CD80 IgV fused to the N-terminus of the heavy chain of the anti-PD-L1 antibody sugemalimab; also called wild type Abs-99; wild-type CD80 IgV-sugemalimab fusion polypeptide complex) heavy: VIHVTKEVKEVATLSCGHNVSVEELAQTRIYWQKEKKMVLTMMSGDMNIWPEYKNRTIFDITNNLSIVILALRPSDEGTYECVVLKYEKDAFKREHLAEVTLSVKADGGGGSGGGGSGGGGSGGGGSGEVQLLESGGGLVQPGGSLRLSCAASGFTFSSYAMSWVRQAPGKGLEWVSGISGSGGFTYYADSVKGRFTISRDNSKNTLYLQMNSLRAEDTAVYYCAKPPRGYNYGPFDYWGQGTLVTVSSASTKGPSVFPLAPCSRSTSESTAALGCLVKDYFPEPVTVSWNSGALTSGVHTFPAVLQSSGLYSLSSVVTVPSSSLGTKTYTCNVDHKPSNTKVDKRVESKYGPPCPPCPAPEFLGGPSVFLFPPKPKDTLMISRTPEVTCVVVDVSQEDPEVQFNWYVDGVEVHNAKTKPREEQFNSTYRVVSVLAVLHQDWLNGKEYKCKVSNKGLPSSIEKTISKAKGQPREPQVYTLPPSQEEMTKNQVSLTCLVKGFYPSDIAVAWESNGQPENNYKTTPPVLDSDGSFFLYSRLTVDKSRWQEGNVFSCSVMHEALHAHYTQKSLSLSLGK light: SYVLTQPPSVSVAPGQTARITCGGNNIGSKSVHWYQQKPGQAPVLVVYDDSDRPSGIPERFSGSNSGNTATLTISRVEAGDEADYYCQVWDSSSDHVVFGGGTKLTVLGQPKAAPSVTLFPPSSEELQANKATLVCLISDFYPGAVTVAWKADSSPVKAGVETTTPSKQSNNKYAASSYLSLTPEQWKSHRSYSCQVTHEGSTVEKTVAPTECS | 0.28 | 215 | 27.9 | 283 | 24.4 | 1200 |  | 
Abs-256 (other, the paragraph that names the antibody is followed; also called CD80 IgV mutant H18W/A26M/A71E/L85D-sugemalimab fusion) heavy: VIHVTKEVKEVATLSCGWNVSVEELMQTRIYWQKEKKMVLTMMSGDMNIWPEYKNRTIFDITNNLSIVILELRPSDEGTYECVVDKYEKDAFKREHLAEVTLSVKADGGGGSGGGGSGGGGSGGGGSGEVQLLESGGGLVQPGGSLRLSCAASGFTFSSYAMSWVRQAPGKGLEWVSGISGSGGFTYYADSVKGRFTISRDNSKNTLYLQMNSLRAEDTAVYYCAKPPRGYNYGPFDYWGQGTLVTVSSASTKGPSVFPLAPCSRSTSESTAALGCLVKDYFPEPVTVSWNSGALTSGVHTFPAVLQSSGLYSLSSVVTVPSSSLGTKTYTCNVDHKPSNTKVDKRVESKYGPPCPPCPAPEFLGGPSVFLFPPKPKDTLMISRTPEVTCVVVDVSQEDPEVQFNWYVDGVEVHNAKTKPREEQFNSTYRVVSVLAVLHQDWLNGKEYKCKVSNKGLPSSIEKTISKAKGQPREPQVYTLPPSQEEMTKNQVSLTCLVKGFYPSDIAVAWESNGQPENNYKTTPPVLDSDGSFFLYSRLTVDKSRWQEGNVFSCSVMHEALHAHYTQKSLSLSLGK light: SYVLTQPPSVSVAPGQTARITCGGNNIGSKSVHWYQQKPGQAPVLVVYDDSDRPSGIPERFSGSNSGNTATLTISRVEAGDEADYYCQVWDSSSDHVVFGGGTKLTVLGQPKAAPSVTLFPPSSEELQANKATLVCLISDFYPGAVTVAWKADSSPVKAGVETTTPSKQSNNKYAASSYLSLTPEQWKSHRSYSCQVTHEGSTVEKTVAPTECS | 0.87 | 133 |  |  |  |  | no binding | no binding

Next, values leading:

EC50(nM), Jurkat-NFAT-Luc/CHO-PDL1 [1] [nM] | The highest induction relative to 10 nM sugemalimab [1] [%] | EC50 [2] [nM] | binding strength @ 100nM [2] [%] | EC50 [3] [nM] | binding strength @ 20nM [3] [%] | binding result [2] | binding result [3] | Binder
0.82 | 154 |  |  |  |  | no binding | no binding | Abs-264 (other, the paragraph that names the antibody is followed; also called CD80 IgV mutant H18W/A26V/E35N/A71E/L85N-sugemalimab fusion) heavy: VIHVTKEVKEVATLSCGWNVSVEELVQTRIYWQKNKKMVLTMMSGDMNIWPEYKNRTIFDITNNLSIVILELRPSDEGTYECVVNKYEKDAFKREHLAEVTLSVKADGGGGSGGGGSGGGGSGGGGSGEVQLLESGGGLVQPGGSLRLSCAASGFTFSSYAMSWVRQAPGKGLEWVSGISGSGGFTYYADSVKGRFTISRDNSKNTLYLQMNSLRAEDTAVYYCAKPPRGYNYGPFDYWGQGTLVTVSSASTKGPSVFPLAPCSRSTSESTAALGCLVKDYFPEPVTVSWNSGALTSGVHTFPAVLQSSGLYSLSSVVTVPSSSLGTKTYTCNVDHKPSNTKVDKRVESKYGPPCPPCPAPEFLGGPSVFLFPPKPKDTLMISRTPEVTCVVVDVSQEDPEVQFNWYVDGVEVHNAKTKPREEQFNSTYRVVSVLAVLHQDWLNGKEYKCKVSNKGLPSSIEKTISKAKGQPREPQVYTLPPSQEEMTKNQVSLTCLVKGFYPSDIAVAWESNGQPENNYKTTPPVLDSDGSFFLYSRLTVDKSRWQEGNVFSCSVMHEALHAHYTQKSLSLSLGK light: SYVLTQPPSVSVAPGQTARITCGGNNIGSKSVHWYQQKPGQAPVLVVYDDSDRPSGIPERFSGSNSGNTATLTISRVEAGDEADYYCQVWDSSSDHVVFGGGTKLTVLGQPKAAPSVTLFPPSSEELQANKATLVCLISDFYPGAVTVAWKADSSPVKAGVETTTPSKQSNNKYAASSYLSLTPEQWKSHRSYSCQVTHEGSTVEKTVAPTECS
0.82 | 122 |  |  |  |  | no binding | no binding | Abs-257 (other, the paragraph that names the antibody is followed; also called CD80 IgV mutant H18W/A26C/A71E/L85N-sugemalimab fusion) heavy: VIHVTKEVKEVATLSCGWNVSVEELCQTRIYWQKEKKMVLTMMSGDMNIWPEYKNRTIFDITNNLSIVILELRPSDEGTYECVVNKYEKDAFKREHLAEVTLSVKADGGGGSGGGGSGGGGSGGGGSGEVQLLESGGGLVQPGGSLRLSCAASGFTFSSYAMSWVRQAPGKGLEWVSGISGSGGFTYYADSVKGRFTISRDNSKNTLYLQMNSLRAEDTAVYYCAKPPRGYNYGPFDYWGQGTLVTVSSASTKGPSVFPLAPCSRSTSESTAALGCLVKDYFPEPVTVSWNSGALTSGVHTFPAVLQSSGLYSLSSVVTVPSSSLGTKTYTCNVDHKPSNTKVDKRVESKYGPPCPPCPAPEFLGGPSVFLFPPKPKDTLMISRTPEVTCVVVDVSQEDPEVQFNWYVDGVEVHNAKTKPREEQFNSTYRVVSVLAVLHQDWLNGKEYKCKVSNKGLPSSIEKTISKAKGQPREPQVYTLPPSQEEMTKNQVSLTCLVKGFYPSDIAVAWESNGQPENNYKTTPPVLDSDGSFFLYSRLTVDKSRWQEGNVFSCSVMHEALHAHYTQKSLSLSLGK light: SYVLTQPPSVSVAPGQTARITCGGNNIGSKSVHWYQQKPGQAPVLVVYDDSDRPSGIPERFSGSNSGNTATLTISRVEAGDEADYYCQVWDSSSDHVVFGGGTKLTVLGQPKAAPSVTLFPPSSEELQANKATLVCLISDFYPGAVTVAWKADSSPVKAGVETTTPSKQSNNKYAASSYLSLTPEQWKSHRSYSCQVTHEGSTVEKTVAPTECS
0.65 | 128 |  |  |  |  | no binding | no binding | Abs-260 (other, the paragraph that names the antibody is followed; also called CD80 IgV mutant A26M/A71E/L85D-sugemalimab fusion) heavy: VIHVTKEVKEVATLSCGHNVSVEELMQTRIYWQKEKKMVLTMMSGDMNIWPEYKNRTIFDITNNLSIVILELRPSDEGTYECVVDKYEKDAFKREHLAEVTLSVKADGGGGSGGGGSGGGGSGGGGSGEVQLLESGGGLVQPGGSLRLSCAASGFTFSSYAMSWVRQAPGKGLEWVSGISGSGGFTYYADSVKGRFTISRDNSKNTLYLQMNSLRAEDTAVYYCAKPPRGYNYGPFDYWGQGTLVTVSSASTKGPSVFPLAPCSRSTSESTAALGCLVKDYFPEPVTVSWNSGALTSGVHTFPAVLQSSGLYSLSSVVTVPSSSLGTKTYTCNVDHKPSNTKVDKRVESKYGPPCPPCPAPEFLGGPSVFLFPPKPKDTLMISRTPEVTCVVVDVSQEDPEVQFNWYVDGVEVHNAKTKPREEQFNSTYRVVSVLAVLHQDWLNGKEYKCKVSNKGLPSSIEKTISKAKGQPREPQVYTLPPSQEEMTKNQVSLTCLVKGFYPSDIAVAWESNGQPENNYKTTPPVLDSDGSFFLYSRLTVDKSRWQEGNVFSCSVMHEALHAHYTQKSLSLSLGK light: SYVLTQPPSVSVAPGQTARITCGGNNIGSKSVHWYQQKPGQAPVLVVYDDSDRPSGIPERFSGSNSGNTATLTISRVEAGDEADYYCQVWDSSSDHVVFGGGTKLTVLGQPKAAPSVTLFPPSSEELQANKATLVCLISDFYPGAVTVAWKADSSPVKAGVETTTPSKQSNNKYAASSYLSLTPEQWKSHRSYSCQVTHEGSTVEKTVAPTECS
